These results are taken from patent US20180282412A1.

Assay [1] has as its target PD-1-Fc fusion protein (extracellular region of human PD-1 fused to human Fc) (human). As to the kind of experiment: ELISA on coated PD-1-Fc, HRP anti-human kappa.
Assay [2] shares this target. The assay can be described thus: SPR (Biacore), PD-1-Fc immobilized, antibody as analyte. (SPR reads the build-up and loss of mass on a sensor chip optically.)

As usually defined, the EC50 (read off the curve) is the concentration that produces a half-maximal response. Read a low EC50 (read off the curve) as higher potency in that assay. The Kd is the equilibrium constant for the complex coming apart. Lower therefore signals a tighter complex.

Sequence of PD-1-Fc fusion protein (extracellular region of human PD-1 fused to human Fc) (human) (chain, as listed by the source limits assumed): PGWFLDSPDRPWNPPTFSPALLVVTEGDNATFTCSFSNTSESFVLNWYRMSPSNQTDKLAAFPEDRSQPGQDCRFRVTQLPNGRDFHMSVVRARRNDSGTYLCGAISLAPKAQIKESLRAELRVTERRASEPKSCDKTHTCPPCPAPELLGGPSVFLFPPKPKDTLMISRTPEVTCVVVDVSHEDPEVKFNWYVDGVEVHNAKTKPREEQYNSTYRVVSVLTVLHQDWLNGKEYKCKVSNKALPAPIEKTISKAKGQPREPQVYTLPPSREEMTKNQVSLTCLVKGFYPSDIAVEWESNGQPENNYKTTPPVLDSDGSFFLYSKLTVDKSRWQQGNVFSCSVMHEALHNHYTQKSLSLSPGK

In assay [1], Nivolumab (antibody) registered an EC50 (read off the curve) of 0.04 mg/L. Also, the Kd in assay [2] amounted to 0.0212 nM.
